Data from patent publication US20250304677A1 (VIB VZW, published 2025).

How the values were obtained:
[1] = molecular target: T1, mouse folate receptor alpha (mFRα), recombinant protein (mouse, UniProt P35846 25-232); assay: ELISA on coated mouse FOLR1 pre-incubated with 100 µM folic acid
T1 construct: Bought recombinant proteins (e.g. biotinylated, Acro Biosystems FO1-M82E9); also called mFOLR1; Ms FOLR1
Procedure: (§1) Data were normalized and technical replicates were plotted as mean±SD. Data were fitted by non-linear regression and the half-maximal effective concentration ^{∘}EC50) was calculated using GraphPad Prism 9 software. ^{∘}FIG. 1C and FIG. 1D) Binding affinity determination of anti-FOLR1 VHHs for native FOLR1. Mouse ^{∘}FIG. 1C) or human FOLR1 FIG. 1D) was overexpressed on HEK293T cells and binding of the anti-FOLR1 VHHs was assessed using flow cytometry. The mean fluorescence intensity ^{∘}MFI) of the phycoerythrin signal was plotted for each VHH concentration. Data were fitted by non-linear regression using GraphPad Prism 9 software. ^{∘}FIG. 1E) Determination of the competition of representative family members with folic acid ^{∘}FA) using ELISA. Mouse FOLR1 was coated on the plate and was pre-incubated with or without 100 μM FA before adding the VHHs. Data were fitted by non-linear regression using GraphPad Prism 9 software.
(§2) As interference with the endogenous transport of folates via FRα could have serious implications on brain homeostasis, competition between representative family members and FA for mouse FRα binding was assessed via ELISA ^{∘}FIG. 1E).

[2] = molecular target: T1, mouse folate receptor alpha (mFRα), …; assay: ELISA on coated mouse FOLR1, without folic acid
Procedure: as §1, §2

[3] = molecular target: T1, mouse folate receptor alpha (mFRα), …; assay: ELISA on recombinant FRα, cMyc tag detection
Procedure: as §1
(§3) In a first step, binding affinity and cross-reactivity of the purified VHHs to human and mouse FRα was assessed by ELISA, using detection of the cMyc tag ^{∘}FIG. 1A-B). […] 2HFO19 ^{∘}family 1) was the best binder of all tested VHHs to both mouse and human FRα with an EC₅₀ of 0.1 nM and 0.4 nM respectively ^{∘}FIG. 1A-B).

[4] = molecular target: T2, human folate receptor alpha (hFRα), recombinant protein (human, UniProt P15328 25-233); assay: ELISA on recombinant FRα, cMyc tag detection
T2 construct: Bought recombinant proteins (His-tagged, or biotinylated via Avi-tag, e.g. AcroBiosystems FO1-H82E2, F01-H52H1); also called hFOLR1; huFOLR1
T2 sequence (P15328 25-233 limits assumed): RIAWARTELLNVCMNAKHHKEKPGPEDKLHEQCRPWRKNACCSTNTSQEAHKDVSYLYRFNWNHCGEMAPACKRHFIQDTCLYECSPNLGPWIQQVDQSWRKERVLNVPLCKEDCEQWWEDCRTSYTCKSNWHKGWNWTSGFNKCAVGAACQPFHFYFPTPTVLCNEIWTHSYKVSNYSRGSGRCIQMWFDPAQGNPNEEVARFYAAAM
Procedure: as §1, §3

[5] = molecular target: T1, mouse folate receptor alpha (mFRα), …; assay: ELISA on recombinant mouse FOLR1, cMyc tag detection, normalised binding, non-linear fit
Procedure: as §1, §3

[6] = molecular target: T2, human folate receptor alpha (hFRα), …; assay: ELISA on recombinant human FOLR1, cMyc tag detection, normalised binding, non-linear fit
Procedure: as §1, §3

[7] = molecular target: T1, mouse folate receptor alpha (mFRα), …; assay: ELISA on coated mouse FOLR1, without and with 100 µM folic acid (series not separable)
Procedure: as §1, §2

T1 sequence (P35846 25-232 limits assumed): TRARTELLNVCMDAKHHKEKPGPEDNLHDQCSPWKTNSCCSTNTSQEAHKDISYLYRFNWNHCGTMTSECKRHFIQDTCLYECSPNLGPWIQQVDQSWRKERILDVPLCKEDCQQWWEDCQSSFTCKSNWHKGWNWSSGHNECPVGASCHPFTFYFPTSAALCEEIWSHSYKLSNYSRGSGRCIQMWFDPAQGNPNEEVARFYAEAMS

EC50 (read off the curve) [1]	EC50 (read off the curve) [2]	EC50 [3]	EC50 [4]	EC50 [5]	EC50 [6]	EC50 (read off the curve) [7]	Binder
~1 nM	~1 nM	0.1 nM	0.4 nM	–	–	–	VHH 2HFO19 (family 1) (VHH, also called Nb19) VHH: QVQLQESGGGLVQPGGSLRVSCAASGFPFSTVYMSWVRQAPGKGLEWVSGINNDGGVIDYADSVKGRFTISRDNAKNTLYLQLNSLKPEDTALYFCARGRSFVATLSSSLRGQGTQVTVSS
–	–	–	–	0.3 nM	11.1 nM	~3 nM	VHH 3MFR60 (family 10) (VHH) VHH: QVQLQESGGGLVQAGGSLRVSCAASGIIFSMNGMGWFRQAPGKQRELVASITSGGSTKYADSVKGRFTISRDNAKNTVYLQMNSLKPEDTAVYYCNIQFGSRWSTYWGQGTQVTVSS
2 to 3 nM	~2 nM	–	–	0.2 nM	10.4 nM	–	VHH 2HFO42 (family 3) (VHH, also called 2HF042; Nb42) VHH: QVQLQESGGGLVQAGGSLRLSCAASGSGFSGMIMGWYRQVPGKQRELVATVTSHGTTNYADSVKGRFTISRDNAKNTVLLQMNSLKPEDTAVYYCNAHFPGIYWGKGTQVTVSS
